Experimental data as given in US20110033462A1 (published 2011).
Where two headings read alike, the source gives them in different places.

What was measured:
[1] = target: T1, JEV SA14-14-2 envelope (E) protein on virions (Japanese encephalitis virus strain …, UniProt P0DOH7 295-794); assay: cell-based or functional assay
T1 chain: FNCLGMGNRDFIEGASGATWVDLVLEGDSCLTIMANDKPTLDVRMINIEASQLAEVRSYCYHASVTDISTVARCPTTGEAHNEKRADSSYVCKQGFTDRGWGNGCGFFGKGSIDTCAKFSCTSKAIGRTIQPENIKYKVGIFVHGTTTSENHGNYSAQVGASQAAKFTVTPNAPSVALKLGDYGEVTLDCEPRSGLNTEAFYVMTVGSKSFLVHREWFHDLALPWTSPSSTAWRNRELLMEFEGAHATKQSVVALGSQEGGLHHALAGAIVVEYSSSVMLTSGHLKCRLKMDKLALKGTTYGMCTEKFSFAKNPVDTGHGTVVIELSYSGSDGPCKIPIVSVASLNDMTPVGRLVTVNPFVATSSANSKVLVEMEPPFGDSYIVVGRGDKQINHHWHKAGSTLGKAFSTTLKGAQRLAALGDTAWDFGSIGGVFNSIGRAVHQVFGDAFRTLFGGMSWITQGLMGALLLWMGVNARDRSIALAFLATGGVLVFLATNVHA

[2] = target: T1, JEV SA14-14-2 envelope (E) protein on …; assay: cell-based or functional assay
[3] = target: T1, JEV SA14-14-2 envelope (E) protein on …; assay: cell-based or functional assay
DENV-3 (H87) virions = target: T2, DENV-3 (H87) virions (dengue virus type 3, strain H87, UniProt P27915 281-773); assay: ELISA, virion-coated plate
T2 construct: mature

DENV-4 (814669) virions = target: T3, DENV-4 (814669) virions (dengue virus type 4, strain 814669, UniProt P09866 280-774); assay: ELISA, virion-coated plate
T3 construct: mature
T3 sequence (P09866 280-774 limits assumed): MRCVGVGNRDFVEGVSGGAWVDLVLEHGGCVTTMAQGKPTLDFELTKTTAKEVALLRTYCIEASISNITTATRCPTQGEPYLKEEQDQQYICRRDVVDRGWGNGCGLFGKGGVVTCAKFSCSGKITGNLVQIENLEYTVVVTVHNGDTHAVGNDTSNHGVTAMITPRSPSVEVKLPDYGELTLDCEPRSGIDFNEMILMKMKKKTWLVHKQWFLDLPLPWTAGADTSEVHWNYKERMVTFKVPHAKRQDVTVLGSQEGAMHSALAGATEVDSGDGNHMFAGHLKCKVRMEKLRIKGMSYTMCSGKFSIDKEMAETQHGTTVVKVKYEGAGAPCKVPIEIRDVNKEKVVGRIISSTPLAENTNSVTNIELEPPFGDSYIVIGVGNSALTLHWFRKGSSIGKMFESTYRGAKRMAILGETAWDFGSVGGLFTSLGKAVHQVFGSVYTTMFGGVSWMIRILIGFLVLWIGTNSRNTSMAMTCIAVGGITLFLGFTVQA

[4] = target: T4, Langat virus (LGTV) strain TP 21 virions (Langat virus, strain TP 21, UniProt P29837 281-776); assay: ELISA, virion-coated plate
T4 construct: mature
T4 sequence: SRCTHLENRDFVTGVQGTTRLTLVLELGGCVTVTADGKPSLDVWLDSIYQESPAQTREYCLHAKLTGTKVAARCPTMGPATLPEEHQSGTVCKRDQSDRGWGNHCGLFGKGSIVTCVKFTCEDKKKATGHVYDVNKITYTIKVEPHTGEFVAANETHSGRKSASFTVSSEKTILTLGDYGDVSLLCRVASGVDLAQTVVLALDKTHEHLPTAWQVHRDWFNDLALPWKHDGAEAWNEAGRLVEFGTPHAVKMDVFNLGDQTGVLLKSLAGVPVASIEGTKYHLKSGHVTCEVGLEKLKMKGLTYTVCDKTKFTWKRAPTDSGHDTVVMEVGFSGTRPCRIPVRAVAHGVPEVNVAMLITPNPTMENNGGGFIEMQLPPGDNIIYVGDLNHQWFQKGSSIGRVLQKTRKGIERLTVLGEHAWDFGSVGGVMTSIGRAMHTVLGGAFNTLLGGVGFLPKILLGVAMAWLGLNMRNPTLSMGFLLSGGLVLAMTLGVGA

[5] = target: T1, JEV SA14-14-2 envelope (E) protein on …; assay: ELISA, virion-coated plate, Fab from ~100 µg/ml
[6] = target: T1, JEV SA14-14-2 envelope (E) protein on …; assay: ELISA on JEV virions (FIG. 4A), half maximum binding
[7] = target: T5, recombinant JEV N-terminal 80% E protein (Japanese encephalitis virus strain …, UniProt P0DOH7 295-692); assay: SPR (Biacore 3000), recombinant E immobilized, Fab in flow
T5 chain: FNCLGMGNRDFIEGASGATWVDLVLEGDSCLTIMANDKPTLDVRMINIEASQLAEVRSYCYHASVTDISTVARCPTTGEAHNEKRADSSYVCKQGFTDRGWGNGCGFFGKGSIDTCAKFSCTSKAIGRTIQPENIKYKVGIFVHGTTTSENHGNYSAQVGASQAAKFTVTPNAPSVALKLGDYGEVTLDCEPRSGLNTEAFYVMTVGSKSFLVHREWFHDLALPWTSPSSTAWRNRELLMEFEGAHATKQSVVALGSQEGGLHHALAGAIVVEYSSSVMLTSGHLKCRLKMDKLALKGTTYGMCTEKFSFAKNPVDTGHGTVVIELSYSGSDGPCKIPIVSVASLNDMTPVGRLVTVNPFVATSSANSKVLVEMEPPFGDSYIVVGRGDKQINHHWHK

[8] = target: T1, JEV SA14-14-2 envelope (E) protein on …; assay: ELISA on JEV virions captured by HMAF, concentration at half-maximal binding
[9] = target: T1, JEV SA14-14-2 envelope (E) protein on …; assay: cell-based or functional assay
[10] = target: JEV strain JE 1991 (genotype I) E protein on virus (Japanese encephalitis virus, strain JE …); assay: cell-based or functional assay
[11] = target: JEV strain JE B 1034/8 (genotype II) E protein on virus (Japanese encephalitis virus, strain JE …); assay: cell-based or functional assay
[12] = target: JEV strain Beijing (genotype III) E protein on virus (Japanese encephalitis virus, strain …); assay: cell-based or functional assay
[13] = target: JEV strain JKT 9092 (genotype IV) E protein on virus (Japanese encephalitis virus, strain JKT …); assay: cell-based or functional assay
[14] = target: T1, JEV SA14-14-2 envelope (E) protein on …; assay: cell-based or functional assay
[15] = target: T1, JEV SA14-14-2 envelope (E) protein on …; assay: cell-based or functional assay
[16] = target: T1, JEV SA14-14-2 envelope (E) protein on …; assay: ELISA on JEV virions
[17] = target: T5, recombinant JEV N-terminal 80% E protein; assay: SPR, recombinant E immobilized

B1: Fab E3 (Fab, V domains shown)
VH: EVQLLESGPGLVRPSQTLSLTCAVSGASISGPLSYWTWIRQSPGKKMEHIGSMFYSGNTYYNPSLKGRITMSVDTSRNQFSLNLNSVTVADTAVYFCARRRETELFGLPIDYWGQGILVTVSS
VL: ELTQSPATLSVSPGERATLSCRASERISSSYLSWYQQKPGQAPRLLMYGTSTRATGIPARFSGSGSGTDFTLTISSLQPEDFAVYFCQQDYNLPWTFGQGTKLEIKR
PRNT50 titer [1]: 84.9 nM
PRNT50 [2]: 84.9 nM
PRNT50 titer [3]: 84.9 nM
ELISA titer (1/log10 dilution) (DENV-3 (H87) virions): < 1 log10 reciprocal dilution
binding result (DENV-3 (H87) virions): no binding
ELISA titer (1/log10 dilution) (DENV-4 (814669) virions): < 1 log10 reciprocal dilution
binding result (DENV-4 (814669) virions): no binding
binding result [4]: no binding
ELISA titer (1/log10 dilution) [5]: 4.2 log10 reciprocal dilution
EC50 [6]: ~100000 pM
Kd [7]: 350 pM
koff [7]: 3.6e-05 s⁻¹
kon [7]: 100000 M⁻¹ s⁻¹
Kd [8]: 980 pM

B2: humanized MAb E3 (antibody, V domains shown)
VH: EVQLLESGPGLVRPSQTLSLTCAVSGASISGPLSYWTWIRQSPGKKMEHIGSMFYSGNTYYNPSLKGRITMSVDTSRNQFSLNLNSVTVADTAVYFCARRRETELFGLPIDYWGQGILVTVSS
VL: ELTQSPATLSVSPGERATLSCRASERISSSYLSWYQQKPGQAPRLLMYGTSTRATGIPARFSGSGSGTDFTLTISSLQPEDFAVYFCQQDYNLPWTFGQGTKLEIKR
occupancy of accessible antibody sites on the virion at neutralization [9]: 66%
PRNT50 titer [3]: 0.93 nM
PRNT50 titer [10]: 0.21 nM
PRNT50 titer [11]: 0.14 nM
PRNT50 titer [12]: 0.71 nM
PRNT50 titer [13]: 0.36 nM
PRNT50 [14]: 0.09 µg/mL
PRNT50 (µg/ml) of MAb 1 alone [15]: 0.09 µg/mL
Kd [8]: 310 pM

B3: Fab A3 (Fab, V domains shown)
VH: EVQLLESGAEVKKPGSSVRISCKVSGTPYSSYVMNWVRQAPGQGLEWMGVFVPSLDRALYAQNFQGRLSITADTTTTYMELTSLKFEDTAVYYCATDFSVGWLRPLDRWGQGTLVTVSS
VL: ELQMTQSPSSLSASVGDRVTITCRASQGISNYLAWYQQKPGKAPKLLIYYASRLESGVPSRFSGSGSGTDYTLTISSLQPEDFATYYCQQYNSNPFTFGPGTKVDIKR
PRNT50 titer [1]: 2.55 nM
PRNT50 [2]: 2.55 nM
PRNT50 titer [3]: 2.55 nM
ELISA titer (1/log10 dilution) (DENV-3 (H87) virions): < 1 log10 reciprocal dilution
binding result (DENV-3 (H87) virions): no binding
ELISA titer (1/log10 dilution) (DENV-4 (814669) virions): < 1 log10 reciprocal dilution
binding result (DENV-4 (814669) virions): no binding
binding result [4]: no binding
ELISA titer (1/log10 dilution) [5]: 4.7 log10 reciprocal dilution
EC50 [6]: ~10000 pM
Kd [7]: 720 pM
koff [7]: 2.8e-05 s⁻¹
kon [7]: 40000 M⁻¹ s⁻¹
Kd [8]: 450 pM

B4: humanized MAb A3 (antibody, V domains shown)
VH: EVQLLESGAEVKKPGSSVRISCKVSGTPYSSYVMNWVRQAPGQGLEWMGVFVPSLDRALYAQNFQGRLSITADTTTTYMELTSLKFEDTAVYYCATDFSVGWLRPLDRWGQGTLVTVSS
VL: ELQMTQSPSSLSASVGDRVTITCRASQGISNYLAWYQQKPGKAPKLLIYYASRLESGVPSRFSGSGSGTDYTLTISSLQPEDFATYYCQQYNSNPFTFGPGTKVDIKR
occupancy of accessible antibody sites on the virion at neutralization [9]: 45%
PRNT50 titer [3]: 0.2 nM
PRNT50 titer [10]: 0.04 nM
PRNT50 titer [11]: 0.04 nM
PRNT50 titer [12]: 0.2 nM
PRNT50 titer [13]: 0.07 nM
PRNT50 [14]: 0.04 µg/mL
PRNT50 (µg/ml) of MAb 1 alone [15]: 0.04 µg/mL
Kd [8]: 150 pM

B5: Fab B2 (Fab, V domains shown)
VH: VQLLEQSGSEVKKPGASVKVSCKASGYPFTDYAMSWVRQAPGQGLEYMGWIFTNSGNPTYAPGFAGRFVFSLDISVNTAYLHIDSLKPEDTAVYYCARGIVTPAASGDYFDSWGQGTLVTVSS
VL: ELVLTQSPSSLSASIGDRVTITCRASQHISSWLAWYQQKPGKAPKPLIYAASSLKSGVPSRFSGSGSGTDFTLTISGLQPEDFATYYCQQYENSPVTFGGGTKVEIKR
Kd [16]: 150 pM
PRNT50 titer [1]: 0.25 nM
PRNT50 [2]: 0.25 nM
PRNT50 titer [3]: 0.25 nM
fold faster off-rate than Fab A3 or E3 [17]: > 120 fold
fold weaker Kd than Fab A3 or E3 [17]: > 150 fold
ELISA titer (1/log10 dilution) (DENV-3 (H87) virions): < 1 log10 reciprocal dilution
binding result (DENV-3 (H87) virions): no binding
ELISA titer (1/log10 dilution) (DENV-4 (814669) virions): < 1 log10 reciprocal dilution
binding result (DENV-4 (814669) virions): no binding
binding result [4]: no binding
ELISA titer (1/log10 dilution) [5]: 4.2 log10 reciprocal dilution
EC50 [6]: ~500 pM
Kd [7]: 110000 pM
koff [7]: 0.0046 s⁻¹
kon [7]: 42000 M⁻¹ s⁻¹
Kd [8]: 280 pM

B6: humanized MAb B2 (antibody, V domains shown)
VH: VQLLEQSGSEVKKPGASVKVSCKASGYPFTDYAMSWVRQAPGQGLEYMGWIFTNSGNPTYAPGFAGRFVFSLDISVNTAYLHIDSLKPEDTAVYYCARGIVTPAASGDYFDSWGQGTLVTVSS
VL: ELVLTQSPSSLSASIGDRVTITCRASQHISSWLAWYQQKPGKAPKPLIYAASSLKSGVPSRFSGSGSGTDFTLTISGLQPEDFATYYCQQYENSPVTFGGGTKVEIKR
occupancy of accessible antibody sites on the virion at neutralization [9]: ~28%
PRNT50 titer [3]: 0.03 nM
PRNT50 titer [10]: 0.02 nM
PRNT50 titer [11]: 0.02 nM
PRNT50 titer [12]: 0.02 nM
PRNT50 titer [13]: 2 nM
PRNT50 [14]: 0.005 µg/mL
PRNT50 (µg/ml) of MAb 1 alone [15]: 0.005 µg/mL
Kd [8]: 80 pM
